Source: US20260167959A1, “APTAZYME-BASED REGULATABLE GENE EXPRESSION SYSTEMS” (REJUVENATE BIO INC, priority 2022, published 2026)
Changes are numbered by the printed parent chain.

B1: RA127 (nucleic acid)
DNA: GCGCGTCCTGGATTCGCGGAAACGCGTACATCCAGCTGACGAGTCCCAAATAGGACGAAACGCGCCGGAATACCAGCATCGTCTTGATGCCCTTGGAAGTCCGGC
modifications: expressed or natural sequence
B2: RA123 (nucleic acid)
DNA: GCGCGTCCTGGATTCGCGGAAACGCGTCGGAATACCAGCATCGTCTTGATGCCCTTGGAAGTCCGACATCCAGCTGACGAGTCCCAAATAGGACGAAACGCGC
modifications: expressed or natural sequence
B3: RA118 (nucleic acid)
DNA: GCGCGTCCTGGATTCGCGGAAACGCGTACATCCAGCTGACGAGTCCCAAATAGGACGAGAGAATACCAGCATCGTCTTGATGCCCTTGGAAGTCTCAACGCGC
modifications: expressed or natural sequence
B4: RA102 (nucleic acid)
DNA: GCGCGTCGGAATACCAGCATCGTCTTGATGCCCTTGGAAGTCCCTGGATTCGCGGAAACGCGTACATCCAGCTGACGAGTCCCAAATAGGACGAAACGCGC
modifications: expressed or natural sequence
B5: RA114 (nucleic acid)
DNA: GCGCGTCCTGGATTCGCGGAAACGCGTACATCCAGCTGACGAGTCCCAAATAGGACGAGGAATACCAGCATCGTCTTGATGCCCTTGGAAGTCCAACGCGC
modifications: expressed or natural sequence
B6: RA109 (nucleic acid)
DNA: GCGCCGAGAATACCAGCATCGTCTTGATGCCCTTGGAAGTCTCGGTCCTGGATTCGCGGAAACGCGTACATCCAGCTGACGAGTCCCAAATAGGACGAAACGCGC
modifications: expressed or natural sequence
B7: RA111 (nucleic acid)
DNA: GCGCGTCCTAGTGATACCAGCATCGTCTTGATGCCCTTGGCAGCACTGGATTCGCGGAAACGCGTACATCCAGCTGACGAGTCCCAAATAGGACGAAACGCGC
modifications: expressed or natural sequence
B8: RA126 (nucleic acid)
DNA: GCGCGTCCTGGATTCGCGGAAACGCGTACAAGAATACCAGCATCGTCTTGATGCCCTTGGAAGTCTTCCAGCTGACGAGTCCCAAATAGGACGAAACGCGC
modifications: expressed or natural sequence
B9: RA113 (nucleic acid)
DNA: GCGCGTCCTGGATTCGCGGAAACGCGTACATCCAGCTGACGAGTCCCAAATAGGACGAAACGCGC
modifications: expressed or natural sequence
B10: RA106 (nucleic acid)
DNA: GCGCGTCCTGGATTCGCGGAAACGCGTACATCCAGCTGACCGGAATACCAGCATCGTCTTGATGCCCTTGGAAGTCCGGCGAGTCCCAAATAGGACGAAACGCGC
modifications: expressed or natural sequence
B11: RA122 (nucleic acid)
DNA: GCGCGTCCTGGATTCGCGGAAACGCGTACATCCAGCTGACGAGTCCCAAATAGGACGAGAATACCAGCATCGTCTTGATGCCCTTGGAAGTCTCGAAACGCGC
modifications: expressed or natural sequence
B12: RA117 (nucleic acid)
DNA: GCGCGTCCTGGATCGGAATACCAGCATCGTCTTGATGCCCTTGGAAGTCCGTCGCGGAAACGCGTACATCCAGCTGACGAGTCCCAAATAGGACGAAACGCGC
modifications: expressed or natural sequence
B13: RA108 (nucleic acid)
DNA: GCGCGTCCTGGATTCGCGGCCGGAATACCAGCATCGTCTTGATGCCCTTGGAAGTCCGGAAACGCGTACATCCAGCTGACGAGTCCCAAATAGGACGAAACGCGC
modifications: expressed or natural sequence
B14: RA112 (nucleic acid)
DNA: GCGCGTCCTGGATTCGCGGAAACGCGTACATCCAGGGAATACCAGCATCGTCTTGATGCCCTTGGAAGTCCCTGACGAGTCCCAAATAGGACAAAACGCGC
modifications: expressed or natural sequence
B15: RA119 (nucleic acid)
DNA: B14 DNA with G36A, C71T, A93G
modifications: expressed or natural sequence
B16: RA107 (nucleic acid)
DNA: GCGCGTCCTGGATTCGCGGAAACGCGTACATCCCGGAATACCAGCATCGTCTTGATGCCCTTGGAAGTCCGAGCTGACGAGTCCCAAATAGGACGAAACGCGC
modifications: expressed or natural sequence
B17: RA101 (nucleic acid)
DNA: GCGCGTCCTGGATTCGCGGAAACGCGTACATCCAGCTGACGAGTCCCAAATAGGACGAACGGAATACCAGCATCGTCTTGATGCCCTTGGAAGTCCGACGCGC
modifications: expressed or natural sequence
B18: RA110 (nucleic acid)
DNA: GCGCGTCCTGGGGAATACCAGCATCGTCTTGATGCCCTTGGAAGTCCATTCGCGGAAACGCGTACATCCAGCTGACGAGTCCCAAATAGGACGAAACGCGC
modifications: expressed or natural sequence
B19: RA011 (nucleic acid)
DNA: GCGCGTCCTGGATTCGCGGAAACGCGTACATCCAGCTGACGAGTCCCGGAATACCAGCATCGTCTTGATGCCCTTGGAAGTCCGCAAATAGGACGAAACGCGC
modifications: expressed or natural sequence
B20: RA116 (nucleic acid)
DNA: GCGCGTCCTGGATTCGCGGAAACGCGTACATCCAGCTGACGAGTCCCAAATAGGGAGAATACCAGCATCGTCTTGATGCCCTTGGAAGTCTCACGAAACGCGC
modifications: expressed or natural sequence
B21: RA104 (nucleic acid)
DNA: GCGCGTCCTGGATTCGCGGAAACGCGTACATCCAGCTGACGAGTCCCAAATCGAGAATACCAGCATCGTCTTGATGCCCTTGGAAGTCTCGAGGACGAAACGCGC
modifications: expressed or natural sequence
B22: RA115 (nucleic acid)
DNA: GCGCGTCCTGGATTCGCGGAAACGCGTACATCCAGCTGACGAGTCCCAAATAGGACGAGAATACCAGCATCGTCTTGATGCCCTTGGAAGTCTAAACGCGC
modifications: expressed or natural sequence
B23: RA010 (nucleic acid)
DNA: GCGCGTCCTGGACGAGAATACCAGCATCGTCTTGATGCCCTTGGAAGTCTCGTTCGCGGAAACGCGTACATCCAGCTGACGAGTCCCAAATAGGACGAAACGCGC
modifications: expressed or natural sequence
B24: RA103 (nucleic acid)
DNA: GCGCGTCCTGGATTCGCGGAAACGCGTACATCCAGCTGACGGAATACCAGCATCGTCTTGATGCCCTTGGAAGTCCGAGTCCCAAATAGGACGAAACGCGC
modifications: expressed or natural sequence
B25: RA105 (nucleic acid)
DNA: GCGCGTCCTGGAGAATACCAGCATCGTCTTGATGCCCTTGGAAGTCTCGATTCGCGGAAACGCGTACATCCAGCTGACGAGTCCCAAATAGGACGAAACGCGC
modifications: expressed or natural sequence
B26: RA121 (nucleic acid)
DNA: GCGCGTCCTGGATTCGAGAATACCAGCATCGTCTTGATGCCCTTGGAAGTCTCGCGGAAACGCGTACATCCAGCTGACGAGTCCCAAATAGGACGAAACGCGC
modifications: expressed or natural sequence
B27: RA120 (nucleic acid)
DNA: GCGCGTCCCCGGAATACCAGCATCGTCTTGATGCCCTTGGAAGTCCGGTGGATTCGCGGAAACGCGTACATCCAGCTGACGAGTCCCAAATAGGACGAAACGCGC
modifications: expressed or natural sequence
B28: RA124 (nucleic acid)
DNA: GCGCGTCCTGGATTCGCGGAAACGCGTACATCCAGCTGACGCGGAATACCAGCATCGTCTTGATGCCCTTGGAAGTCCGAGTCCCAAATAGGACGAAACGCGC
modifications: expressed or natural sequence
B29: RA125 (nucleic acid)
DNA: GCGCGTCCTGGATTCGCGGAAACGCGTACATCCAGCTGACGAGTCCCGGAATACCAGCATCGTCTTGATGCCCTTGGAAGTCCGGCCAAATAGGACGAAACGCGC
modifications: expressed or natural sequence

Tested on: Renilla luciferase RNA
Assay: Barcoded aptazyme variant library screen: un-cleaved Renilla luciferase RNA by barcode read counts, HEK293-T cells
Format: cell-based
Conditions: un-cleaved Renilla luciferase RNA, HEK293-T cells cultured with 1 mM theophylline (ON) over without theophylline (OFF); barcode read counts, triplicate
Method in brief: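 Aptazyme variants (seven theophylline aptamers inserted after each T3H48 ribozyme nucleotide, 9-nt barcoded) cloned into the 3′ UTR of Renilla luciferase in psiCHECK-2; cells cultured ± theophylline, in triplicate. RNA and DNA barcodes amplified and sequenced; normalized read counts gave un-cleaved RNA fraction and ON/OFF fold-change.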

| Molecule | Fold change in RNA expression between the ON state and the OFF state |
| --- | --- |
| B1 | 1.4 fold |
| B2 | 1.5 fold |
| B3 | 1.5 fold |
| B4 | 1.6 fold |
| B5 | 1.5 fold |
| B6 | 1.6 fold |
| B7 | 1.6 fold |
| B8 | 1.5 fold |
| B9 | 1.5 fold |
| B10 | 1.6 fold |
| B11 | 1.5 fold |
| B12 | 1.5 fold |
| B13 | 1.6 fold |
| B14 | 1.5 fold |
| B15 | 1.5 fold |
| B16 | 1.6 fold |
| B17 | 1.6 fold |
| B18 | 1.6 fold |
| B19 | 3.6 fold |
| B20 | 1.5 fold |
| B21 | 1.6 fold |
| B22 | 1.5 fold |
| B23 | 3.6 fold |
| B24 | 1.6 fold |
| B25 | 1.6 fold |
| B26 | 1.5 fold |
| B27 | 1.5 fold |
| B28 | 1.5 fold |
| B29 | 1.5 fold |
